For one molecule, Kd results are on record in PMC4058522 (2014).

This test has as its target mouse Pih1 PIH domain Lys 153 charge reversal mutant (mouse, UniProt Q9CQJ2 1-200, Charge reversal of a conserved residue Lys 153). As to the kind of experiment: ITC.

Square brackets hold non-standard residues; d marks the D form. Ends that are not written are not given here. pS = N[C@@H](COP(=O)(O)O)C(=O)O

mouse Pih1 PIH domain Lys 153 charge reversal mutant, sequence (Q9CQJ2 other isoform, or with tags, fused parts or gaps Charge reversal of a conserved residue Lys 153 | mutant): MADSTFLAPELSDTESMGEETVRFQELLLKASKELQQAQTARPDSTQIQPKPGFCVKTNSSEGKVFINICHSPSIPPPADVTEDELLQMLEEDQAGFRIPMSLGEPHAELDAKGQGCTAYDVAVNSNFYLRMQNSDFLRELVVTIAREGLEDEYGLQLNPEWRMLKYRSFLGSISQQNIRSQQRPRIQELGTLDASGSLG

For the molecule QGSD[pS]ELD[pS]DDEF [mouse Tel2 484-496 peptide, bis-phosphorylated pSer 488 and pSer 492 (QGSDpSELDpSDDEF)], the Kd stood at 220 nM.
